Experimental findings from PMC6353875 (2019) are described below.

This test addresses EZH2 SRM-SANT1 (residues 141–251) (human, UniProt Q15910 141-251). As to the kind of experiment: NMR.

EZH2 SRM-SANT1 (residues 141–251), sequence (Q15910 141-251): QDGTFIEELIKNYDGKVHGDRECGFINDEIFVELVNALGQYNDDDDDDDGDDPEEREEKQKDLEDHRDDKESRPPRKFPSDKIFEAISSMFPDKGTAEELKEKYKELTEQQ

The term Kd denotes the equilibrium constant for the complex coming apart. Low values mean higher affinity, high ones lower affinity. PEPAKSAPAPK [unmodified histone H2B peptide (residues 1–11)] showed a Kd greater than 5 mM.
